# T1: sclerostin (Homo sapiens (Human), UniProt Q9BQB4 24-213)
# T1 construct: also called SOST; Beer
# T1 sequence: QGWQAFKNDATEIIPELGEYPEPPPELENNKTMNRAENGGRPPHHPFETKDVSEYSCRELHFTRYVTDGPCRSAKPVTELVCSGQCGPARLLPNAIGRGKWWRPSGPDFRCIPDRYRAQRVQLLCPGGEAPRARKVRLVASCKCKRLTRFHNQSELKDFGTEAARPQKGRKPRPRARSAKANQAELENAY
# B1: BMP-6 (ligand, UniProt P22004 382-513, looked up)
# chain: QQSRNRSTQSQDVARVSSASDYNSSELKTACRKHELYVSFQDLGWQDWIIAPKGYAANYCDGECSFPLNAHMNATNHAIVQTLVHLMNPEYVPKPCCAPTKLNAISVLYFDDNSNVILKKYRNMVVRACGCH
# notes: also called bone morphogenic protein 6
# B2: BMP receptor II-FC fusion protein (Fc fusion, not shown: a dimerising Fc or GST; small tags and cut ends)
# chain: SQNQERLCAFKDPYQQDLGIGESRISHENGTILCSKGSTCYGLWEKSKGDINLVKQGCWSHIGDPQECHYEECVVTTTPPSIQNGTYRFCCCSTDLCNVNFTENFPPPDTTPLSPPHSFNRDET
# notes: also called BMPR-II
# B3: DAN (ligand)
# chain: AAPPPINKLALFPDKSAWCEAKNITQIVGHSGCEAKSIQNRACLGQCFSYSVPNTFPQSTESLVHCDSCMPAQSMWEIVTLECPGHEEVPRVDKLVEKILHCSCQACGKEPSHEGLSVYVQGEDGPGSQPGTHPHPHPHPHPGGQTPEPEDPPGAPHTEEEGAED
# Tests used:
# [1] = molecular target: B1; experiment: ELISA-based competition: receptor-Fc against coated sclerostin for BMP-6 (11 nM)
# [2] = molecular target: B1; experiment: ELISA-based competition: 10-fold molar excess of receptor-Fc against coated sclerostin for BMP-6
# [3] = molecular target: T1, sclerostin; experiment: ELISA, BMP-6 on a sclerostin-coated surface (300 ng/well)
# Protocol: (§1) A 10-fold molar excess of the BMP receptor was sufficient to reduce binding of sclerostin to BMP-6 by approximately 50%. This competition was also observed with a BMP receptor II-FC fusion protein (IC₅₀=36 nM) and DAN (IC₅₀=43 nM).
# [4] = molecular target: B1; experiment: ELISA-based competition: receptor-Fc against coated sclerostin for BMP-6
# Protocol: as §1
# [5] = molecular target: B1; experiment: ELISA-based competition: DAN against coated sclerostin for BMP-6
molecule,measurement,setting,value
BMP receptor IA (FC fusion construct),IC50,[1],114 nM
same,percent reduction of sclerostin binding to BMP-6 at 10-fold molar excess,[2],50%
B1,Kd,[3],3.4 nM
B2,IC50,[4],36 nM
B3,IC50,[5],43 nM
